Measurements published in paper PMC8241838, “Structural mechanism of laminin recognition by integrin” (Nature Communications, 2021).

Experiments:
[1] = biological target: α6β1 integrin on Expi293F cells, α6 D153A (human, UniProt P05556 21-798, Mn2+; A cytoplasmic form assumed); experiment: flow cytometry on cells; Expi293F cells transiently expressing α6 (wild type or mutant) with β1, in HBS-BSA with 0.5 mM MnCl2, varying concentrations of sfGFP-tLM511, room temperature 2 h, no washing; non-transfected cells as baseline; settings: one partner purified
[2] = biological target: α6β1 integrin on Expi293F cells, α6 R157A (human, UniProt P05556 21-798, Mn2+; A cytoplasmic form assumed); experiment: as above; settings: one partner purified
Sequence of α6β1 integrin on Expi293F cells, α6 R157A (chain, as listed by the source R157A, chain 1 of 2): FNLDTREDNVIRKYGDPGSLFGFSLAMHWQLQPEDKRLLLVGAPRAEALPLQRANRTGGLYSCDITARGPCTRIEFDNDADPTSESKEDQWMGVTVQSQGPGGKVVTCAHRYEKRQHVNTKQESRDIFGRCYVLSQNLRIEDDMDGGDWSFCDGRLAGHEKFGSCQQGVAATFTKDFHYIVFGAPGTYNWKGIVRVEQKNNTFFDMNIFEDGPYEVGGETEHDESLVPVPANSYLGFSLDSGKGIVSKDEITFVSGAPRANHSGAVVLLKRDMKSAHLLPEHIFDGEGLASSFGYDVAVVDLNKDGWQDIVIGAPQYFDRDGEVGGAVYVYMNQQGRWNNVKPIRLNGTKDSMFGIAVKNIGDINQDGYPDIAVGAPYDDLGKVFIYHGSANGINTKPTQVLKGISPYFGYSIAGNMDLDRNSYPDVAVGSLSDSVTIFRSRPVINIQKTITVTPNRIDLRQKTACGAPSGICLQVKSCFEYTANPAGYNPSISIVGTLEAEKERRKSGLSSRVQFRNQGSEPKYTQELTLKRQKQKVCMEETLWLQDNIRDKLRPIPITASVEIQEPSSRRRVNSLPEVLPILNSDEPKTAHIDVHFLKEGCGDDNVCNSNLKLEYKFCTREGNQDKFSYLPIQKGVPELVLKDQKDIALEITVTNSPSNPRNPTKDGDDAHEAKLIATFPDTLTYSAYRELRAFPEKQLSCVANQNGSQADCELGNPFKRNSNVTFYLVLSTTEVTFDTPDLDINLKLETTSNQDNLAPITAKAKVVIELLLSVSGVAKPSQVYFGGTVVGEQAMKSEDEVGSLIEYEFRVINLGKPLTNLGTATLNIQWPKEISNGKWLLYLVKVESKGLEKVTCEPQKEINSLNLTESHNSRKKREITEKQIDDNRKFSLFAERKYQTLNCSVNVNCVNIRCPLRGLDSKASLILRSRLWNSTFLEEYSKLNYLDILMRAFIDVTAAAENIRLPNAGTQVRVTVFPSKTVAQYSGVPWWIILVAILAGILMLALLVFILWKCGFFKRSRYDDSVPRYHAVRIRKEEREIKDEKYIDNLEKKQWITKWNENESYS
Sequence of α6β1 integrin on Expi293F cells, α6 R157A (P05556 21-798, chain 2 of 2): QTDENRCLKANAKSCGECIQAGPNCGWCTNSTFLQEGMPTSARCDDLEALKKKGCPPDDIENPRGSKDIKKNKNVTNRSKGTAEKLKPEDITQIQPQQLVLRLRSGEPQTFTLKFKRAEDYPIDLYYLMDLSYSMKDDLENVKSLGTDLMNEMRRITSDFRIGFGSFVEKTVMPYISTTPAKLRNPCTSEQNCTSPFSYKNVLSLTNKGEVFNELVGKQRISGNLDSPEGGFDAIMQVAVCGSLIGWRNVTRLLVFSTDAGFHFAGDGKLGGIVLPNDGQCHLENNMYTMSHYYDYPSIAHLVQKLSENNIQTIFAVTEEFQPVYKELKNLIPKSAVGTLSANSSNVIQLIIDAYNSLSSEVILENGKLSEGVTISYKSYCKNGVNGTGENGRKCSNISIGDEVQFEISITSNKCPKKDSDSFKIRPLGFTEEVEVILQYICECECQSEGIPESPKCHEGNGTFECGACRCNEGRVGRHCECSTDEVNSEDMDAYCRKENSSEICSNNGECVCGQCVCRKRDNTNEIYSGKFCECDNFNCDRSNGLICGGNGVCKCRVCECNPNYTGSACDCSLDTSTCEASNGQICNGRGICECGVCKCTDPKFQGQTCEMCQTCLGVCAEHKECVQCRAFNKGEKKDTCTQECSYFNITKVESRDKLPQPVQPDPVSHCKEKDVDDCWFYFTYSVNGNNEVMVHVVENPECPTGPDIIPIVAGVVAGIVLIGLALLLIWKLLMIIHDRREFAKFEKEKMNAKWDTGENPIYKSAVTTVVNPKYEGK

Sequence of α6β1 integrin on Expi293F cells, α6 D153A (chain, as listed by the source D153A, chain 1 of 2): as the sequence (chain, as listed by the source R157A, chain 1 of 2) above, with D153A, A157R counted along it
Sequence of α6β1 integrin on Expi293F cells, α6 D153A (P05556 21-798, chain 2 of 2): as the sequence (P05556 21-798, chain 2 of 2) above

B1: trimeric fusion protein PA-sfGFP-tLM511 (complex)
chain 1: ENVERWQGQYEGLRGQDLGQAVLDAGHSVSTLEKTLPQLLAKLSILENRGVHNASLALSASIGRVRELIAQARGAASKVKVPMKFNGRSGVQLRTPRDLADLAAYTALKFYLQGPEPEPGQGTEDRFVMYMGSRQATGDYMGVSLRDKKVHWVYQLGEAGPAVLSIDEDIGEQFAAVSLDRTLQFGHMSVTVERQMIQETKGDTVAPGAEGLLNLRPDDFVFYVGGYPSTFTPPPLLRFPGYRGCIEMDTLNEEVVSLYNFERTFQLDTAVDRPCARSKSTGDPWLTDGSYLDGTGFARISFDSQISTTKRFEQELRLVSYSGVLFFLKQQSQFLCLAVQEGSLVLLYDFGAGLKKAVPLQPPPPLTSASKAIQVFLLGGSRKRVLVRVERATVYSVEQDNDLELADAYYLGGVPPDQLPPSLRRLFPTGGSVRGCVKGIKALGKYVDLKRLNTTGVSAGCTADLLVGRAMTFHGHGFLRLALSNVAPLTGNVYSGFGFHSAQDSALLYYRASPDGLCQVSLQQGRVSLQLLRTEVKTQAGFADGAPHYVAFYSNATGVWLYVDDQLQQMKPHRGPPPELQPQPEGPPRLLLGGLPESGTIYNFSGCISNVFVQRLLGPQRVFDLQQNLGSVNVSTGCAPALQAQTPGLGPRGLQATARKASRRSRQPARHPA
chain 2: not shown
chain 3: DTVDLNKLNEIEGTLNKAKDEMKVSDLDRKVSDLENEAKKQEAAIMDYNRDIEEIMKDIRNLEDIRKTLPSGCFNTPSIEKP
notes: laminin α5 chain (tLMα5), human, residues E2655-A3327, numbered from the initiation Met; sfGFP inserted between the PA tag and tLMα5; laminin β1 chain (tLMβ1), human, residues D1714-L1786, numbered from the initiation Met; laminin γ1 chain (tLMγ1), human, residues D1528-P1609, numbered from the initiation Met; sfGFP gene: GenBank ASL68970.1; also called sfGFP-fused tLM511; fluorescent tLM511 …
[1]
  fold increase in KD over the wild type: 3.6 fold
[2]
  fold increase in KD over the wild type: 2.3 fold
